Measured values taken from patent publication US20180237536A1 (INNATE PHARMA, published 2018).
Positions count from the first letter of the chain named. One block for each binder: values may come before it.

Key:
[1] = target: T1, recombinant human CD73-His extracellular domain protein (soluble dimer) (human, UniProt P21589 27-547); assay: cell-based or functional assay
T1 sequence: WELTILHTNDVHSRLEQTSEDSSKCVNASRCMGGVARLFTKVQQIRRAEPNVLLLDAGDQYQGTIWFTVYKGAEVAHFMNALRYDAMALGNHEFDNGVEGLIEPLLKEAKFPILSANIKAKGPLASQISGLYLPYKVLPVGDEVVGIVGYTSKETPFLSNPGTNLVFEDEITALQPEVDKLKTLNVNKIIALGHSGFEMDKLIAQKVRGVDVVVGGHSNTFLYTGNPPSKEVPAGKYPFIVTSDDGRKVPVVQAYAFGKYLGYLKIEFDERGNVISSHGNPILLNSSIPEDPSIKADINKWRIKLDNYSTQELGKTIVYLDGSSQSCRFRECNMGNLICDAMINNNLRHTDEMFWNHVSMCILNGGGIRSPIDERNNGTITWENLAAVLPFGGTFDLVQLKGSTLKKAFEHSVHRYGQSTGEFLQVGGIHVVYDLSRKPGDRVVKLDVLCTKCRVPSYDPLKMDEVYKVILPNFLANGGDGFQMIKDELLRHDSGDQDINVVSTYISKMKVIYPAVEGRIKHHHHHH

[2] = target: T2, human CD73 expressed at the cell surface (human, UniProt P21589 27-549); assay: cell-based or functional assay
T2 sequence: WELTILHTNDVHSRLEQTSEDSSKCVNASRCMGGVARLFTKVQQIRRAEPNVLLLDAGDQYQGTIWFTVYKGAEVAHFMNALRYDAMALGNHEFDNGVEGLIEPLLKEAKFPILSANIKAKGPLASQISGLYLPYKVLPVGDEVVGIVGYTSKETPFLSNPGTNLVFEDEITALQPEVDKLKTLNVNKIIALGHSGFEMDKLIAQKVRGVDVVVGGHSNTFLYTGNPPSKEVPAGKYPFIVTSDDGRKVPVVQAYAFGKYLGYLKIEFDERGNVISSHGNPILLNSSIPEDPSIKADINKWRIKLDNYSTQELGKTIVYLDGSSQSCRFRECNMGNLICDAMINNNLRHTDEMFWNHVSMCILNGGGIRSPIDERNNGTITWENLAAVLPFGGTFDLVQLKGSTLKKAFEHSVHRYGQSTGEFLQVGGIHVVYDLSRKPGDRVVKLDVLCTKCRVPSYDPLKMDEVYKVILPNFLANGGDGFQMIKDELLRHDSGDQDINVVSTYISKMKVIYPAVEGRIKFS

[3] = target: T2, human CD73 expressed at the cell surface; assay: cell-based or functional assay; remark: listed apart in the source
[4] = target: T2, human CD73 expressed at the cell surface; assay: flow cytometry titration on human CD73-expressing recombinant host cells, PE secondary, median of fluorescence
Procedure: MDA-MB-231 cells are available from ATCC (reference HTB-26). 10⁵ cells resuspended in PBS/0.2% BSA/0.02% NaN3 (named “staining buffer”) are distributed into round bottom 96W-microplates. Dose-range of anti-CD73 antibodies was added to the plates and cells are incubated for 45 min at 4° C. Cells were washed three times in staining buffer by spinning plates at 400 g for 3 min at 4° C. PE-coupled goat anti-mouse or goat anti-human IgG Fc fragment secondary antibodies (Beckman Coulter) diluted in staining buffer were added to the cells and plates are incubated for 30 additional minutes at 4° C. Cells were washed three times as described above and analyzed on an Accury C6 flow cytometer equipped with an HTFC plate reader.
Median of fluorescence vs. antibodies concentration was plotted on graphs and EC50 is calculated using GraphPad Prism program.

[5] = target: T3, cynomolgus CD73 expressed on recombinant host cells (cynomolgus); assay: flow cytometry titration on cynomolgus CD73-expressing recombinant host cells, PE secondary, median of fluorescence
T3 construct: whole, on cells; also called cynoCD73

human CD73 mutant 3 = target: T4, human CD73 mutant 3 (human, UniProt P21589 27-549); assay: flow cytometry on transfected HEK293T cells
T4 construct: Expressed on transfected HEK293T cells
T4 chain: T2 sequence with A73S, E103A, K107A, E108N, A109S
Procedure: CD73 mutants are generated by PCR. The sequences amplified are run on agarose gel and purified using the Macherey Nagel PCR Clean-Up Gel Extraction kit (reference 740609). The purified PCR products generated for each mutant are then ligated into an expression vector, with the ClonTech InFusion system. The vectors containing the mutated sequences are prepared as Miniprep and sequenced. After sequencing, the vectors containing the mutated sequences are prepared as Midiprep using the Promega PureYield™ Plasmid Midiprep System. HEK293T cells are grown in DMEM medium (Invitrogen), transfected with vectors using Invitrogen's Lipofectamine 2000 and incubated at 37° C. in a CO2 incubator for 24 hours prior to testing for transgene expression
Anti-CD73 antibodies are tested for their binding to each mutant by flow cytometry. A first experiment is performed to determine antibodies that lose their binding to one or several mutants at one concentration. To confirm a loss of binding, titration of antibodies is done on antibodies for which binding seemed to be affected by the CD73 mutations (1-0.1-0.01-0.001 μg/ml). Antibodies 11E1, 8C7, 3C12 or 6E1 lost binding to mutant 3 of CD73, but not to any other mutant. […] Antibody 7G2 lost binding to mutants 5, 6 and 7 (but not mutants 2 or 3).

EC50 for CD73 blockade (enzymatic activity of soluble recombinant CD73-his, Cell Titer Glo) [1]: 0.41 µg/mL
EC50 for neutralization of enzymatic activity of cellular CD73 (MDA-MB-231, free phosphate from AMP) [2]: 0.195 µg/mL
EC50 for neutralization of cellular CD73 enzymatic activity (mean over MDA-MB-231, H292, A375) [3]: 0.1 µg/mL
EC70 for neutralization of cellular CD73 enzymatic activity (mean over MDA-MB-231, H292, A375) [3]: 0.15 µg/mL
EC100 for neutralization of cellular CD73 enzymatic activity (mean over MDA-MB-231, H292, A375) [3]: 0.52 µg/mL
EC50 (read off the curve) [4]: ~0.5 µg/mL
EC50 (read off the curve) [5]: ~0.5 µg/mL
B1: antibody 11E1 (antibody, human IgG1, V domains shown)
VH: EIQLQQSGPELVKPGASVKVSCKASGYAFTSYNMYWVKQSHGKSLEWIGYIDPYNGGTSYNQKFKGKATLTVDKSSSTAYMHLNSLTSEDSAVYYCARGYGNYKAWFAYWGQGTLVTVSA
VL: DAVMTQTPKFLLVSAGDRVTITCKASQSVTNDVAWYQQKPGQSPKLLIYYASNRYTGVPDRFTGSGYGTDFTFTISTVQAEDLAVYFCQQDYSSLTFGAGTKLELK
notes: also called 1E11

EC50 for CD73 blockade (enzymatic activity of soluble recombinant CD73-his, Cell Titer Glo) [1]: 1.29 µg/mL
EC50 for neutralization of enzymatic activity of cellular CD73 (MDA-MB-231, free phosphate from AMP) [2]: 0.319 µg/mL
EC50 for neutralization of cellular CD73 enzymatic activity (mean over MDA-MB-231, H292, A375) [3]: 0.21 µg/mL
EC70 for neutralization of cellular CD73 enzymatic activity (mean over MDA-MB-231, H292, A375) [3]: 0.46 µg/mL
EC100 for neutralization of cellular CD73 enzymatic activity (mean over MDA-MB-231, H292, A375) [3]: 0.72 µg/mL
B2: antibody 8C7 (antibody, human IgG1, V domains shown)
VH: B1 VH with I2V, T30A, Y35N, E46D, T58S, Q62L, K63T, S77T
VL: SIVMTPTPKFLLVSAGDRVTITCKASQSVSNDVAWYQQKPGQSPKLLIYYASTRYTGVPDRFTGSGYGTDFTFTISTVQAEDLAVYFCQQDYSSLTFGAGTKLELKR
binding result (human CD73 mutant 3): no binding (tested: 1-0.1-0.01-0.001 µg/ml)

EC50 for CD73 blockade (enzymatic activity of soluble recombinant CD73-his, Cell Titer Glo) [1]: 0.41 µg/mL
EC50 for neutralization of enzymatic activity of cellular CD73 (MDA-MB-231, free phosphate from AMP) [2]: 0.21 µg/mL
EC50 for neutralization of cellular CD73 enzymatic activity (mean over MDA-MB-231, H292, A375) [3]: 0.14 µg/mL
EC70 for neutralization of cellular CD73 enzymatic activity (mean over MDA-MB-231, H292, A375) [3]: 0.18 µg/mL
EC100 for neutralization of cellular CD73 enzymatic activity (mean over MDA-MB-231, H292, A375) [3]: 0.3 µg/mL
B3: antibody 3C12 (antibody, human IgG1, V domains shown)
VH: B1 VH with E1Q, T30A, Y35N, E46D, T58S, Q62L, K63T, S77T
VL: B2 VL with S1D, I2V, P6Q

EC50 for CD73 blockade (enzymatic activity of soluble recombinant CD73-his, Cell Titer Glo) [1]: 0.33 µg/mL
EC50 for neutralization of enzymatic activity of cellular CD73 (MDA-MB-231, free phosphate from AMP) [2]: 0.209 µg/mL
EC50 for neutralization of cellular CD73 enzymatic activity (mean over MDA-MB-231, H292, A375) [3]: 0.13 µg/mL
EC70 for neutralization of cellular CD73 enzymatic activity (mean over MDA-MB-231, H292, A375) [3]: 0.19 µg/mL
EC100 for neutralization of cellular CD73 enzymatic activity (mean over MDA-MB-231, H292, A375) [3]: 0.68 µg/mL
EC50 (read off the curve) [4]: ~0.5 µg/mL
B4: antibody 6E1 (antibody, human IgG1, V domains shown)
VH: B1 VH with I2F, S44R, T58S, S85N, G101N
VL: B1 VL with D1S, A2I, V78M
